Experimental data: publication PMC8517857, “BusR senses bipartite DNA binding motifs by a unique molecular ruler architecture” (Nucleic Acids Research, 2021)
Residue numbers refer to the chain shown, from its start.

Experiments:
[1] = target: selenomethionine substituted full-length BusR from Streptococcus agalactiae (Streptococcus agalactiae); assay: crystal structure; selenomethionine full-length BusR, apo, 7 mg/ml, 150 mM magnesium-acetate, 6% D+trehalose, 20°C; SAD, 2.8 Å
BusR = target: T1, BusR (Streptococcus agalactiae, UniProt K0JNC6); assay: ITC; […] Å co-crystal structure of the RCK_C domain; cryo-EM of the BusR:c-di-AMP:DNA complex; format: binding
T1 construct: gene BM110_ORF1201; full-length BusR (ITC)

[2] = target: RCK_C domain of S. agalactiae BusR (Leu135 to end), no His6-tag (Streptococcus agalactiae); assay: crystal structure; RCK_C (no His6-tag), 4.5 mg/mL, co-crystallised with 1 mM c-di-AMP, 100 mM sodium-acetate pH 4.6, 3% PEG 4000, 20°C; 1.2 Å
[3] = target: His6-RCK_C domain of S. agalactiae BusR (Leu135 to end) (Streptococcus agalactiae); assay: crystal structure; apo His6-RCK_C, 6 mg/mL, 0.1 M Bis-Tris pH 6.5, 18% PEG MME 5000, 20°C; 1 Å; dimer by a symmetry related copy
[4] = target: His6-RCK_C domain of S. agalactiae BusR (Leu135 to end) (Streptococcus agalactiae); assay: SAXS; isolated RCK_C domain in the absence of c-di-AMP; batch mode or SEC-SAXS, P12 beamline, PETRA III
[5] = target: BusR from Streptococcus agalactiae (full length) (Streptococcus agalactiae); assay: SEC-MALS; SEC-coupled right angle light scattering (SEC-RALS), Superdex S200 10/300 increase, 20°C, buffer SEC (30 mM NaPi pH 6.5, 200 mM NaCl, 3% glycerol); BusR alone (apo) and with c-di-AMP
[6] = target: BusR from Streptococcus agalactiae (full length) (Streptococcus agalactiae); assay: cryo-EM structure; BusR with c-di-AMP (100 μM) and operator DNA (pAB, 4.5 Å; pAB1, 7.1 Å), 20 mM HEPES pH 6.5, 100 mM NaCl
[7] = target: BusR from Streptococcus agalactiae (full length) (Streptococcus agalactiae); assay: SAXS; full length BusR in 20 mM HEPES pH 7.5, 200 mM NaCl, 3% glycerol; P12 beamline, PETRA III
BusR wt [8] = target: T2, BusR wt (Streptococcus agalactiae DSM 16828, UniProt K0JNC6 1-213); assay: EMSA; 10 uM c-di-AMP, 100 nM BusR; EMSA: 100 mM KPi pH 6.5, 20 mM KCl, 30 min 20 C, 20 nM DNA, gel at 8 C; SPR: 100 mM NaPi pH 6.5, 20 mM KCl, 200 mM NaCl, 3 mM EDTA, 0.05% P20; BusR concentrations as tetramer; conditions: protein: recombinant; tags: His6-MBP removed with PreScission protease; chain copies: 4; label: 5'-6-FAM on strand 1; blunt
T2 sequence: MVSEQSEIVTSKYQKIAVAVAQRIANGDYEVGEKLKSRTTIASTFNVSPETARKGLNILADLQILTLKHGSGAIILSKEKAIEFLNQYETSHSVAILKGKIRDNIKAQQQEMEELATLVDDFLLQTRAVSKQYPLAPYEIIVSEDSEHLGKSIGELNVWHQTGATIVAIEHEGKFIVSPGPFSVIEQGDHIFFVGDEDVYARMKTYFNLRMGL

BusR wt [9] = target: T2, BusR wt; assay: cryo-EM; c-di-AMP; 7.1 A; EMSA: 100 mM KPi pH 6.5, 20 mM KCl, 30 min 20 C, 20 nM DNA, gel at 8 C; SPR: 100 mM NaPi pH 6.5, 20 mM KCl, 200 mM NaCl, 3 mM EDTA, 0.05% P20; BusR concentrations as tetramer; conditions: protein: recombinant; tags: His6-MBP removed with PreScission protease; chain copies: 4; blunt
BusR W159A [10] = target: T3, BusR W159A (Streptococcus agalactiae DSM 16828, UniProt K0JNC6 1-213, W159A); assay: SPR; 10 uM c-di-AMP; EMSA: 100 mM KPi pH 6.5, 20 mM KCl, 30 min 20 C, 20 nM DNA, gel at 8 C; SPR: 100 mM NaPi pH 6.5, 20 mM KCl, 200 mM NaCl, 3 mM EDTA, 0.05% P20; BusR concentrations as tetramer; conditions: protein: recombinant; tags: His6-MBP removed with PreScission protease; chain copies: 4; blunt
BusR wt [11] = target: T2, BusR wt; assay: as above; conditions: protein: recombinant; tags: His6-MBP removed with PreScission protease; chain copies: 4; blunt
BusR W159A [12] = target: T3, BusR W159A; assay: SPR; no c-di-AMP; EMSA: 100 mM KPi pH 6.5, 20 mM KCl, 30 min 20 C, 20 nM DNA, gel at 8 C; SPR: 100 mM NaPi pH 6.5, 20 mM KCl, 200 mM NaCl, 3 mM EDTA, 0.05% P20; BusR concentrations as tetramer; conditions: protein: recombinant; tags: His6-MBP removed with PreScission protease; chain copies: 4; blunt

Q: How did the stoichiometry N [1] turn out when “selenomethionine substituted full-length BusR from Streptococcus agalactiae (natural protein)” was run?
A: 4

Q: With `Nc1ncnc2c1ncn2[C@@H]1O[C@@H]2COP(=O)(O)O[C@H]3[C@@H](O)[C@H](n4cnc5c(N)ncnc54)O[C@@H]3COP(=O)(O)O[C@H]2[C@H]1O` [c-di-AMP] as the molecule, how does the Kd (BusR) read?
A: 112 ± 7 nM

Q: “RCK_C domain of S. agalactiae BusR (Leu135 to end), no His6-tag (domain or fragment)” was tested. Which stoichiometry N [2] did it give?
A: 2

Q: Which stoichiometry N [3] does the source give for “His6-RCK_C domain of S. agalactiae BusR (Leu135 to end) (domain or fragment)” here?
A: 2

Q: What about the stoichiometry N [4] of the same molecule?
A: 2

Q: With “BusR from Streptococcus agalactiae (full length) (natural protein)” as the molecule, how does the stoichiometry N [5] read?
A: 4

Q: What about the stoichiometry N [6] of the same molecule?
A: 4

Q: What about the stoichiometry N [7] of the same molecule?
A: 4

B1: pAB1 -10bp (dsDNA)
DNA 1: ATAAAGTGACGTTAAAAGGGTAGTCACTTTTTTACT
DNA 2: AGTAAAAAAGTGACTACCCTTTTAACGTCACTTTAT
Q: Does B1 bind (BusR wt [8])?
A: no binding

B2: pAB1 +5bp (dsDNA)
DNA 1: ATAAAGTGACGTTAAAGTATCGTCGATTAAAAGGGTAGTCACTTTTTTACT
DNA 2: AGTAAAAAAGTGACTACCCTTTTAATCGACGATACTTTAACGTCACTTTAT
Q: Does B2 bind (BusR wt [8])?
A: no binding

B3: pAB1_EM (dsDNA)
DNA 1: CGGTAAAGTGACGTTAAAGTATCGTAAAAGGGTAGTCACTTTTCGG
DNA 2: CCGAAAAGTGACTACCCTTTTACGATACTTTAACGTCACTTTACCG
Q: Does B3 bind (BusR wt [9])?
A: binds

B4: pAB1 (SPR) (dsDNA)
DNA 1: ATAAAGTGACGTTAAAGTATCGTAAAAGGGTAGTCACTTTTTTACT
DNA 2: AGTAAAAAAGTGACTACCCTTTTACGATACTTTAACGTCACTTTAT
Q: Which Kd (BusR W159A [10]) does the source give for B4 here?
A: 34 ± 8 nM

Q: What about the Kd (BusR wt [11]) of the same molecule?
A: 5.1 ± 0.4 nM

Q: What about the Kd (BusR W159A [12]) of the same molecule?
A: 11 ± 2 nM

B5: pAB1 1BS-B (dsDNA)
DNA 1: B4 DNA 1 with G33C, T34A, C35T
DNA 2: B4 DNA 2 with G12A, A13T, C14G
Q: Does B5 bind (BusR wt [8])?
A: no binding

B6: pAB1 1BS-A (dsDNA)
DNA 1: B4 DNA 1 with G8A, A9T, C10G
DNA 2: B4 DNA 2 with G37C, T38A, C39T
Q: Does B6 bind (BusR wt [8])?
A: no binding

B7: pAB1 0BS (dsDNA)
DNA 1: ATAAAGTATGGTTAAAGTATCGTAAAAGGGTACATACTTTTTTACT
DNA 2: AGTAAAAAAGTATGTACCCTTTTACGATACTTTAACCATACTTTAT
Q: Does B7 bind (BusR wt [8])?
A: no binding
